Here are results for four substances from doi:10.1101/2024.10.24.620072.

The target in assay [1] is human (H3-H4)2 tetramer (human) (UniProt P68431). The assay is described as follows: MST.
Assay [2] concerns the target fluorescently labeled H2a(G129C)-H2b dimer (human) (UniProt P04908). The assay is described as follows: MST.

Usually Kd stands for a measure of binding affinity in units of concentration. Read a high Kd as a looser complex. “αSyn(1-103) (from UniProt P37840 1-103) (domain or fragment)”: the Kd in assay [1] came out at 107 nM.
Turning to “αSyn(1-131) (from UniProt P37840 1-131) (domain or fragment)”, in assay [2], the Kd is 32400 nM.
In assay [2], “αSyn(121-140) peptide (from UniProt P37840 121-140)” registered a KD of one of two binding sites of 500 nM and a KD of the other of two binding sites of 2600 nM.
Take “human α-Synuclein, full-length (from UniProt P37840 1-140) (natural protein)”: in assay [1], the Kd came out at 50 nM.
